The values that follow come from patent publication US20070020327A1.

The target of one test is HLA-A*0301 (human). The experiment in a line: competition with 125I-labelled standard peptide for purified HLA, gel filtration.
Conditions: not given
On the technique in general: In gel filtration, larger molecules generally elute earlier.
For MSLLKNRFLR (modifications not checked) [… (PSA, position 99)], the binding affinity ratio (IC50 of standard peptide / IC50 of test peptide) was 0.007.
With LGEYIRKRYR (modifications not checked), the binding affinity ratio (IC50 of standard peptide / IC50 of test peptide) is 0.0003.
Still for that read-out and setting: for KSLYESWTK (modifications not checked) [… (PSM, position 491)] the value was 0.4.
For FSERLQDFDK (modifications not checked) [… (PSM, position 646, 10 amino acids)], the binding affinity ratio (IC50 of standard peptide / IC50 of test peptide) is 0.0003.
Take LGIASGRAR (modifications not checked) [PSM 528 peptide …]: the binding affinity ratio (IC50 of standard peptide / IC50 of test peptide) came out at 0.0006.

The same test, now with this note: remark: other sources report otherwise.
Regarding LGEYIRKRY (modifications not checked), the binding affinity ratio (IC50 of standard peptide / IC50 of test peptide) is 0.0002.

The target of a further test is HLA-A*0201 (purified HLA class I molecule) (human). The description is as above.
Conditions: not given
With MLLRLSEPAEL (modifications not checked) [PSA peptide … (position 118, 11 amino acids)], the binding affinity ratio (IC50 of standard peptide / IC50 of test peptide) was found to be 0.14.
With LVHPQWVLTAA (modifications not checked) [Kallikrein (hK2) peptide … (position 54, 11 amino acids)], the binding affinity ratio (IC50 of standard peptide / IC50 of test peptide) amounted to 0.0001.
As for LVHPQWVL (modifications not checked) [PSA peptide LVHPQWVL (position 50, 8 amino acids)], the binding affinity ratio (IC50 of standard peptide / IC50 of test peptide) came out at 0.0001.
NLNGAGDPLT (modifications not checked) [PSM peptide … (position 260, 10 amino acids)]: the binding affinity ratio (IC50 of standard peptide / IC50 of test peptide) was 0.0002.
For LVHPQWVLT (modifications not checked) [PSA peptide … (position 50, 9 amino acids)], the binding affinity ratio (IC50 of standard peptide / IC50 of test peptide) is 0.0001.
Turning to LVHPQWVLTA (modifications not checked) [Kallikrein (hK2) peptide … (position 54, 10 amino acids)], the binding affinity ratio (IC50 of standard peptide / IC50 of test peptide) was determined as 0.0001.
As to LVHPQWVLTA (modifications not checked) [PSA peptide … (position 50, 10 amino acids)], the binding affinity ratio (IC50 of standard peptide / IC50 of test peptide) came out at 0.0001.
As for MALDVYNGLL (modifications not checked) [PAP peptide … (position 298, 10 amino acids)], the binding affinity ratio (IC50 of standard peptide / IC50 of test peptide) was 0.001.
For the molecule NLLHETDSA (modifications not checked) [PSM peptide … (position 3, 9 amino acids)], the binding affinity ratio (IC50 of standard peptide / IC50 of test peptide) came out at 0.0001.
Regarding MTKLRELSEL (modifications not checked) [PAP peptide … (position 232, 10 amino acids)], the binding affinity ratio (IC50 of standard peptide / IC50 of test peptide) was 0.0002.
Consider LVHPQWVLT (modifications not checked) [Kallikrein (hK2) peptide … (position 54, 9 amino acids)], for which the binding affinity ratio (IC50 of standard peptide / IC50 of test peptide) was found to be 0.0001.
Turning to LVHPQWVLTAA (modifications not checked) [PSA peptide … (position 50, 11 amino acids)], the binding affinity ratio (IC50 of standard peptide / IC50 of test peptide) amounted to 0.0001.
On the same count and under the same terms, for NAQLAGAKGV (modifications not checked) [PSM peptide … (position 216, 10 amino acids)] the value was 0.0002.

The test is the same for the next values; noted with them: remark: other sources report otherwise.
On to LVLSIALSV (modifications not checked) [Kallikrein (hK2) peptide … (position 4, 9 amino acids)], for which the binding affinity ratio (IC50 of standard peptide / IC50 of test peptide) worked out at 0.002.

The next test has as its target HLA-A*0201 (human). The experiment in a line: competition with 125I-labelled standard peptide for purified HLA, gel filtration; ratio = IC50 standard / IC50 test peptide.
Conditions: not given
In the case of QLGMEQHYEL (modifications not checked) [PAP peptide …, position 72, 10 amino acids], the binding affinity ratio (ratio to standard peptide) worked out at 0.0003.
Consider QMALDVYNGL (modifications not checked) [PAP peptide …, position 297, 10 amino acids], for which the binding affinity ratio (ratio to standard peptide) was 0.0002.
For QVWLGRHNL (modifications not checked) [Kallikrein (hK2) peptide …, position 72, 9 amino acids], the binding affinity ratio (ratio to standard peptide) stood at 0.0001.
On the same count and under the same terms, the same measure for QIPSYKKLI (modifications not checked) [PAP peptide …, position 276, 9 amino acids]: 0.0002; for QVYIRSTDV (modifications not checked) [PAP peptide …, position 101, 9 amino acids]: 0.0002.
For the molecule QVSHSFPHPL (modifications not checked) [PSA peptide …, position 87, 10 amino acids], the binding affinity ratio (ratio to standard peptide) worked out at 0.0001.
Same read-out and setting: the same measure for PTQEPALGT (modifications not checked) [PSA peptide …, position 138, 9 amino acids]: 0.0001; for PTQEPALGT (modifications not checked) [Kallikrein (hK2) peptide …, position 142, 9 amino acids]: 0.0001.
The same measure, in the same setting: the same measure for QLAGAKGVI (modifications not checked) [PSM peptide …, position 218, 9 amino acids]: 0.0001; for QVRGGMVFEL (modifications not checked) [PSM peptide …, position 578, 10 amino acids]: 0.0001.
Same read-out and setting: the same measure for QLAGAKGVIL (modifications not checked) [PSM peptide …, position 218, 10 amino acids]: 0.0006.
In the case of QVLVASRGRAV (modifications not checked) [PSA peptide …, position 35, 11 amino acids], the binding affinity ratio (ratio to standard peptide) turned out to be 0.0001.
As for QVLVASRGRA (modifications not checked) [PSA peptide …, position 35, 10 amino acids], the binding affinity ratio (ratio to standard peptide) stood at 0.0001.
On the same count and under the same terms, for QAAAETLSEV (modifications not checked) [PSM peptide …, position 740, 10 amino acids] the value was 0.0006.
On to QVHPQKVTKFM (modifications not checked) [PSA peptide …, position 182, 11 amino acids], for which the binding affinity ratio (ratio to standard peptide) amounted to 0.0001.

The next test deals with HLA-A*0201 (human). The experiment in a line: competition binding to purified HLA, 125I-labelled standard peptide, gel filtration; ratio = IC50 standard / IC50 test peptide.
Conditions: not given
In the case of DLVLSIAL (modifications not checked) [DLVLSIAL (Kallikrein, position 3, 8 amino acids)], the binding affinity ratio was 0.0001.
Regarding DLHVISNDV (modifications not checked) [… (PSA, position 171, 9 amino acids)], the binding affinity ratio worked out at 0.0003.
On the same count and under the same terms, for DMSLLKNRFL (modifications not checked) [… (PSA, position 98, 10 amino acids)] the value was 0.0001; for DLHVISNDVCA (modifications not checked) [… (PSA, position 171, 11 amino acids)], 0.0001.
For the molecule DLPTQEPA (modifications not checked) [DLPTQEPA (PSA, position 136, 8 amino acids)], the binding affinity ratio was determined as 0.0001.
On to DMKINCSGKI (modifications not checked) [… (PSM, position 191, 10 amino acids)], for which the binding affinity ratio came out at 0.0001.
With DAVKVMDLPT (modifications not checked) [… (PSA, position 130, 10 amino acids)], the binding affinity ratio is 0.0001.
With DLFGIWSKV (modifications not checked) [… (PAP, position 201, 9 amino acids)], the binding affinity ratio was 0.0002.

Still in this test, the particulars now being: remark: other sources report otherwise.
Consider DLVLSIALSV (modifications not checked) [… (Kallikrein, position 3, 10 amino acids)], for which the binding affinity ratio came out at 0.001.
Still for that read-out and setting: the same measure for DLPTQEPAL (modifications not checked) [… (PSA, position 136, 9 amino acids)]: 0.0003.
